According to paper PMC3343632 (Nature cell biology, 2012):

Molecular target: the molecule itself
Assay: single-molecule TIRF microscopy with stepwise photobleaching

B1: GFP-tagged tailless kinesin-1 motor, taillessKhc::GFP (1-849) (domain or fragment, UniProt P17210 1-849, looked up)
chain: MSAEREIPAEDSIKVVCRFRPLNDSEEKAGSKFVVKFPNNVEENCISIAGKVYLFDKVFKPNASQEKVYNEAAKSIVTDVLAGYNGTIFAYGQTSSGKTHTMEGVIGDSVKQGIIPRIVNDIFNHIYAMEVNLEFHIKVSYYEIYMDKIRDLLDVSKVNLSVHEDKNRVPYVKGATERFVSSPEDVFEVIEEGKSNRHIAVTNMNEHSSRSHSVFLINVKQENLENQKKLSGKLYLVDLAGSEKVSKTGAEGTVLDEAKNINKSLSALGNVISALADGNKTHIPYRDSKLTRILQESLGGNARTTIVICCSPASFNESETKSTLDFGRRAKTVKNVVCVNEELTAEEWKRRYEKEKEKNARLKGKVEKLEIELARWRAGETVKAEEQINMEDLMEASTPNLEVEAAQTAAAEAALAAQRTALANMSASVAVNEQARLATECERLYQQLDDKDEEINQQSQYAEQLKEQVMEQEELIANARREYETLQSEMARIQQENESAKEEVKEVLQALEELAVNYDQKSQEIDNKNKDIDALNEELQQKQSVFNAASTELQQLKDMSSHQKKRITEMLTNLLRDLGEVGQAIAPGESSIDLKMSALAGTDASKVEEDFTMARLFISKMKTEAKNIAQRCSNMETQQADSNKKISEYEKDLGEYRLLISQHEARMKSLQESMREAENKKRTLEEQIDSLREECAKLKAAEHVSAVNAEEKQRAEELRSMFDSQMDELREAHTRQVSELRDEIAAKQHEMDEMKDVHQKLLLAHQQMTADYEKVRQEDAEKSSELQNIILTNERREQARKDLKGLEDTVAKELQTLHNLRKLFVQDLQQRIRKNVVNEESEEDGGSLA
With B1 the “stoichiometry N” value was 2.
